Type: biochemical
Conditions: pH 7.2
Procedure, shortened: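 E. coli resting cells expressing His-tagged TriA incubated with azines, melamine or atrazine. Enzyme in 25 mM sodium phosphate pH 7.2 at 30 °C, substrate 1–10 nM. Loss of parent and formation of OH-metabolite followed by UPLC-HR-MS; % degradation relative to empty-vector cells.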

B1: N126M: mutated TriA variant of SEQ ID NO: 2 (protein)
chain: MQTLSIQHGTLVTMDQYRRVLGDSWVHVQDGRIVALGVHAESVPPPADRVIDARGKVVLPGFINAHTHVNQILLRGGPSHGRQLYDWLFNVLYPGQKAMRPEDVAVAVRLYCAEAVRSGITTINDMADSAIYPGNIEAAMAVYGEVGVRVVYARMFFDRMDGRIQGYVDALKARSPQVELCSIMEETAVAKDRITALSDQYHGTAGGRISVWPAPAITPAVTVEGMRWAQAFARDRAVMWTLHMAESDHDERLHWMSPAEYMECYGLLDERLQVAHCVYFDRKDVRLLHRHNVKVASQVVSNAYLGSGVAPVPEMVERGMAVGIGTDDGNCNDSVNMIGDMKFMAHIHRAVHRDADVLTPEKILEMATIDGARSLGMDHEIGSIETGKRADLILLDLRHPQTTPHHHLAATIVFQAYGNEVDTVLIDGNVVMENRRLSFLPPERELAFLEEAQSRATAILQRANMVANPAWRSL
modifications: Pseudomonas
Degradation in % of 6-cyclopentyl-N4-(2,3,4,5,6-pentafluorophenyl)-1,3,5-triazine-2,4-diamine: 0%
Degradation in % of Melamine: 3%

B2: M155G: mutated TriA variant of SEQ ID NO: 2 (protein)
chain: MQTLSIQHGTLVTMDQYRRVLGDSWVHVQDGRIVALGVHAESVPPPADRVIDARGKVVLPGFINAHTHVNQILLRGGPSHGRQLYDWLFNVLYPGQKAMRPEDVAVAVRLYCAEAVRSGITTINDNADSAIYPGNIEAAMAVYGEVGVRVVYARGFFDRMDGRIQGYVDALKARSPQVELCSIMEETAVAKDRITALSDQYHGTAGGRISVWPAPAITPAVTVEGMRWAQAFARDRAVMWTLHMAESDHDERLHWMSPAEYMECYGLLDERLQVAHCVYFDRKDVRLLHRHNVKVASQVVSNAYLGSGVAPVPEMVERGMAVGIGTDDGNCNDSVNMIGDMKFMAHIHRAVHRDADVLTPEKILEMATIDGARSLGMDHEIGSIETGKRADLILLDLRHPQTTPHHHLAATIVFQAYGNEVDTVLIDGNVVMENRRLSFLPPERELAFLEEAQSRATAILQRANMVANPAWRSL
modifications: Pseudomonas
Degradation in % of 6-cyclopentyl-N4-(2,3,4,5,6-pentafluorophenyl)-1,3,5-triazine-2,4-diamine: 0%
Degradation in % of Melamine: 4%

B3: N126D: mutated TriA variant of SEQ ID NO: 2 (protein)
chain: MQTLSIQHGTLVTMDQYRRVLGDSWVHVQDGRIVALGVHAESVPPPADRVIDARGKVVLPGFINAHTHVNQILLRGGPSHGRQLYDWLFNVLYPGQKAMRPEDVAVAVRLYCAEAVRSGITTINDDADSAIYPGNIEAAMAVYGEVGVRVVYARMFFDRMDGRIQGYVDALKARSPQVELCSIMEETAVAKDRITALSDQYHGTAGGRISVWPAPAITPAVTVEGMRWAQAFARDRAVMWTLHMAESDHDERLHWMSPAEYMECYGLLDERLQVAHCVYFDRKDVRLLHRHNVKVASQVVSNAYLGSGVAPVPEMVERGMAVGIGTDDGNCNDSVNMIGDMKFMAHIHRAVHRDADVLTPEKILEMATIDGARSLGMDHEIGSIETGKRADLILLDLRHPQTTPHHHLAATIVFQAYGNEVDTVLIDGNVVMENRRLSFLPPERELAFLEEAQSRATAILQRANMVANPAWRSL
modifications: Pseudomonas
Degradation in % of 6-cyclopentyl-N4-(2,3,4,5,6-pentafluorophenyl)-1,3,5-triazine-2,4-diamine: 0%
Degradation in % of Melamine: 0%

B4: D128A: mutated TriA variant of SEQ ID NO: 2 (protein)
chain: MQTLSIQHGTLVTMDQYRRVLGDSWVHVQDGRIVALGVHAESVPPPADRVIDARGKVVLPGFINAHTHVNQILLRGGPSHGRQLYDWLFNVLYPGQKAMRPEDVAVAVRLYCAEAVRSGITTINDNAASAIYPGNIEAAMAVYGEVGVRVVYARMFFDRMDGRIQGYVDALKARSPQVELCSIMEETAVAKDRITALSDQYHGTAGGRISVWPAPAITPAVTVEGMRWAQAFARDRAVMWTLHMAESDHDERLHWMSPAEYMECYGLLDERLQVAHCVYFDRKDVRLLHRHNVKVASQVVSNAYLGSGVAPVPEMVERGMAVGIGTDDGNCNDSVNMIGDMKFMAHIHRAVHRDADVLTPEKILEMATIDGARSLGMDHEIGSIETGKRADLILLDLRHPQTTPHHHLAATIVFQAYGNEVDTVLIDGNVVMENRRLSFLPPERELAFLEEAQSRATAILQRANMVANPAWRSL
modifications: Pseudomonas
Degradation in % of 6-cyclopentyl-N4-(2,3,4,5,6-pentafluorophenyl)-1,3,5-triazine-2,4-diamine: 5%
Degradation in % of Melamine: 3%

B5: N126S: mutated TriA variant of SEQ ID NO: 2 (protein)
chain: MQTLSIQHGTLVTMDQYRRVLGDSWVHVQDGRIVALGVHAESVPPPADRVIDARGKVVLPGFINAHTHVNQILLRGGPSHGRQLYDWLFNVLYPGQKAMRPEDVAVAVRLYCAEAVRSGITTINDSADSAIYPGNIEAAMAVYGEVGVRVVYARMFFDRMDGRIQGYVDALKARSPQVELCSIMEETAVAKDRITALSDQYHGTAGGRISVWPAPAITPAVTVEGMRWAQAFARDRAVMWTLHMAESDHDERLHWMSPAEYMECYGLLDERLQVAHCVYFDRKDVRLLHRHNVKVASQVVSNAYLGSGVAPVPEMVERGMAVGIGTDDGNCNDSVNMIGDMKFMAHIHRAVHRDADVLTPEKILEMATIDGARSLGMDHEIGSIETGKRADLILLDLRHPQTTPHHHLAATIVFQAYGNEVDTVLIDGNVVMENRRLSFLPPERELAFLEEAQSRATAILQRANMVANPAWRSL
modifications: Pseudomonas
Degradation in % of 6-cyclopentyl-N4-(2,3,4,5,6-pentafluorophenyl)-1,3,5-triazine-2,4-diamine: 1%
Degradation in % of Melamine: 2%

B6: D128S: mutated TriA variant of SEQ ID NO: 2 (protein)
chain: MQTLSIQHGTLVTMDQYRRVLGDSWVHVQDGRIVALGVHAESVPPPADRVIDARGKVVLPGFINAHTHVNQILLRGGPSHGRQLYDWLFNVLYPGQKAMRPEDVAVAVRLYCAEAVRSGITTINDNASSAIYPGNIEAAMAVYGEVGVRVVYARMFFDRMDGRIQGYVDALKARSPQVELCSIMEETAVAKDRITALSDQYHGTAGGRISVWPAPAITPAVTVEGMRWAQAFARDRAVMWTLHMAESDHDERLHWMSPAEYMECYGLLDERLQVAHCVYFDRKDVRLLHRHNVKVASQVVSNAYLGSGVAPVPEMVERGMAVGIGTDDGNCNDSVNMIGDMKFMAHIHRAVHRDADVLTPEKILEMATIDGARSLGMDHEIGSIETGKRADLILLDLRHPQTTPHHHLAATIVFQAYGNEVDTVLIDGNVVMENRRLSFLPPERELAFLEEAQSRATAILQRANMVANPAWRSL
modifications: Pseudomonas
Degradation in % of 6-cyclopentyl-N4-(2,3,4,5,6-pentafluorophenyl)-1,3,5-triazine-2,4-diamine: 0%
Degradation in % of Melamine: 0%

B7: D128N: mutated TriA variant of SEQ ID NO: 2 (protein)
chain: MQTLSIQHGTLVTMDQYRRVLGDSWVHVQDGRIVALGVHAESVPPPADRVIDARGKVVLPGFINAHTHVNQILLRGGPSHGRQLYDWLFNVLYPGQKAMRPEDVAVAVRLYCAEAVRSGITTINDNANSAIYPGNIEAAMAVYGEVGVRVVYARMFFDRMDGRIQGYVDALKARSPQVELCSIMEETAVAKDRITALSDQYHGTAGGRISVWPAPAITPAVTVEGMRWAQAFARDRAVMWTLHMAESDHDERLHWMSPAEYMECYGLLDERLQVAHCVYFDRKDVRLLHRHNVKVASQVVSNAYLGSGVAPVPEMVERGMAVGIGTDDGNCNDSVNMIGDMKFMAHIHRAVHRDADVLTPEKILEMATIDGARSLGMDHEIGSIETGKRADLILLDLRHPQTTPHHHLAATIVFQAYGNEVDTVLIDGNVVMENRRLSFLPPERELAFLEEAQSRATAILQRANMVANPAWRSL
modifications: Pseudomonas
Degradation in % of 6-cyclopentyl-N4-(2,3,4,5,6-pentafluorophenyl)-1,3,5-triazine-2,4-diamine: 2%
Degradation in % of Melamine: 0%
